Experimental data published in paper PMC10531985, “A Unique G-Quadruplex Aptamer: A Novel Approach for Cancer Cell Recognition, Cell Membrane Visualization, and RSV Infection Detection”.

What was measured:
[1] = target: T1, nucleolin (NCL) (Homo sapiens, UniProt P19338 1-710); assay: SPR; 150 mM KCl; SPR: 10 mM HEPES, 150 mM KCl, 3 mM EDTA, pH 7.4, NCL on CM5 chip, temperature not stated; EMSA: 5x binding buffer listed as 40 mM Tris, 30 mM KCl, 1 mM MgCl2, 1 mM DTT, pH 8.0, 200 nM probe, room temperature 25 min, gel with 20 mM KCl at 4 C; details: protein: recombinant, parallel G4
[2] = target: T1, nucleolin (NCL); assay: EMSA; K+; SPR: 10 mM HEPES, 150 mM KCl, 3 mM EDTA, pH 7.4, NCL on CM5 chip, temperature not stated; EMSA: 5x binding buffer listed as 40 mM Tris, 30 mM KCl, 1 mM MgCl2, 1 mM DTT, pH 8.0, 200 nM probe, room temperature 25 min, gel with 20 mM KCl at 4 C; details: protein: recombinant; label: 5'-FAM; parallel G4
[3] = target: T1, nucleolin (NCL); assay: SPR; up to 2 uM aptamer; SPR: 10 mM HEPES, 150 mM KCl, 3 mM EDTA, pH 7.4, NCL on CM5 chip, temperature not stated; EMSA: 5x binding buffer listed as 40 mM Tris, 30 mM KCl, 1 mM MgCl2, 1 mM DTT, pH 8.0, 200 nM probe, room temperature 25 min, gel with 20 mM KCl at 4 C; details: protein: recombinant; no G4

T1 sequence (P19338 whole entry): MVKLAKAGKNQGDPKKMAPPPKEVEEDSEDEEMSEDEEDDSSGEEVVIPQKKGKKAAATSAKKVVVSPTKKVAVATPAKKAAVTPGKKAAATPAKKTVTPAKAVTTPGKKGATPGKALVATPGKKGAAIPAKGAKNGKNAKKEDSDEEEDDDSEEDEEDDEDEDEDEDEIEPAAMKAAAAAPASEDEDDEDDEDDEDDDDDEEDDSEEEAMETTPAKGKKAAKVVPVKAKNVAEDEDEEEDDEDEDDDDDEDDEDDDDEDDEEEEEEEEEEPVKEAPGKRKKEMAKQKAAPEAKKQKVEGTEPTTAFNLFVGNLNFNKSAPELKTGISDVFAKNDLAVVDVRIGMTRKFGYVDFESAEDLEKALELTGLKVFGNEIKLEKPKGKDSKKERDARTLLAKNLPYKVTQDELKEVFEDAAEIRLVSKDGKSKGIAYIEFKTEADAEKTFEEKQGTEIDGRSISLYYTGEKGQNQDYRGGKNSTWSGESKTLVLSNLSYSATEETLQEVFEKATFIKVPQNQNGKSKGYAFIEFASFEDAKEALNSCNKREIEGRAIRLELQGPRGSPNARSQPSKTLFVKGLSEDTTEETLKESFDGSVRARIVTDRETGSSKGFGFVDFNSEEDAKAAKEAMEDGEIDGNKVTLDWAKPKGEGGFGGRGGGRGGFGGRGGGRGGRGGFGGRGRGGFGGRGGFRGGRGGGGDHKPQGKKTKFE

Q: With GUUAGGGUUUAUGGGAUUG (structured_RNA) [Apt-3] as the binder, how does the Kd [1] read?
A: Its Kd is 0.0204 µM.

Q: GUUAGGGUUUAUGGGAUUG (structured_RNA) [Apt-3-F] was tested. Which Kd [2] did it give?
A: Its Kd is 0.0771 µM.

Q: And the Kd ([1]; label: 5'-FAM)?
A: Its Kd is 0.0249 µM.

Q: Does GUUAGAGUUUAUGAGAUUG (ssRNA) [Apt-3 mutant] bind [3]?
A: Result: no binding
